The values that follow come from publication PMC3839904, “The α-Proteobacteria Wolbachia pipientis Protein Disulfide Machinery Has a Regulatory Mechanism Absent in γ-Proteobacteria” (PLoS ONE, 2013).

For one assay, the target named is T1, α-DsbB (Wolbachia pipientis, UniProt Q73G63).
T1 construct: gene WD_1099; full-length integral membrane protein, pET21a (NdeI/XhoI) in E. coli BL21(DE3)pLysS, beta-DDM solubilised, TALON and size exclusion purified
T1 sequence (Q73G63 1-173): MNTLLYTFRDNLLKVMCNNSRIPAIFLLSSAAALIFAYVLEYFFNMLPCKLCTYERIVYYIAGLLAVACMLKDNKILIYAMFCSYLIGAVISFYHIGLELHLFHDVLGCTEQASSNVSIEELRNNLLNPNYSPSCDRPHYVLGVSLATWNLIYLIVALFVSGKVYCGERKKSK
Kind of assay: UQ1 reduction, absorbance at […] nm; AMS gel shift. The following applies: reduced α-DsbA1 […] as electron donor, pH […] beta-DDM, […]°C. Type of assay: biochemical.

Assay [1] deals with Wolbachia pipientis wMel α-DsbB (integral membrane protein) (Wolbachia pipientis wMel).
The target is the same in assay [2]. This is another data set of the same source.
The target of assay [3] is α-DsbB [SSCC] (the two cysteines of the first periplasmic loop replaced with serines) (Wolbachia pipientis wMel).
The target in assay [4] is Wolbachia pipientis wMel α-DsbB (integral membrane protein) (Wolbachia pipientis wMel). This is another data set of the same source.
Assay [5] shares this target. The source holds these as a separate data set.

As for `COC1=C(OC)C(=O)C(CC=C(C)C)=C(C)C1=O` [UQ1, ubiquinone-1], the “UQ1 reduction, absorbance at 275 nm; AMS gel shift” value at α-DsbB is given as “UQ1 reduction was coupled with α-DsbB-mediated oxidation of α-DsbA1”.

In turn, “Wolbachia pipientis wMel α-DsbA1 (enzyme)” had an initial rate of UQ1 reduction (absorbance at 275 nm) with α-DsbB (50 nM), UQ1 (30 µM) and reduced α-DsbA1 (30 µM), 30°C in assay [1] of 0.236 min⁻¹. In assay [2], the initial rate of oxidation of the peptide substrate (time-resolved fluorescence) by α-DsbA1 with α-DsbB membranes (endogenous UQ), pH 5.5 amounted to 0.00477 min^-1. In assay [3], the reverse reaction: gel-shift of the oxidation of reduced α-DsbB [SSCC] by oxidized α-DsbA1, within 15 min (% of α-DsbB [SSCC] oxidized) stood at 50.

As for “α-DsbA1CA (α-DsbA1 variant with the cysteines of the non-catalytic disulfide replaced with alanine) (enzyme)”, in assay [4], the initial rate of oxidation of the peptide substrate (time-resolved fluorescence) by α-DsbA1CA with wt α-DsbB membranes worked out at 0.00621 min⁻¹. Also, in assay [5], the gel-shift (AMS labelling) of the redox state of reduced α-DsbA1CA with α-DsbB and UQ1; oxidised variant against oxidised wt at 30 sec, 2 min, 5 min (3, 2 and 1.3 fold) is 3 fold. The same compound gave an initial rate of UQ1 reduction (absorbance at 275 nm) with α-DsbB, UQ1 and reduced α-DsbA1CA, 30°C in assay [1] of 0.463 min⁻¹.
